Data on five substances can be found in paper PMC4351136.

The target in assay [1] is human β2GPI (beta2-glycoprotein I) (human (endogenous in pooled normal human serum)) (UniProt P02749). The assay can be described thus: ELISA. For orientation: In an ELISA, binding on a coated surface is turned into a signal by an enzyme label.
For assay [2], the target named is mouse β2GPI (beta2-glycoprotein I) (mouse (endogenous in pooled BALB/c mouse serum)) (UniProt Q01339). The assay is described as follows: ELISA.
For assay [3], the target named is domain V of human β2GPI (human) (UniProt P02749). The assay is described as follows: ITC. A general note: In ITC the heat of successive injections is recorded.
Sequence of domain V of human β2GPI (human) (P02749 263-345): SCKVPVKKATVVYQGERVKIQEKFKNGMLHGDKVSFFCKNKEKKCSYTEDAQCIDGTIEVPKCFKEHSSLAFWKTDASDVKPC

Sequence of mouse β2GPI (beta2-glycoprotein I) (mouse (endogenous in pooled BALB/c mouse serum)) (Q01339 20-345): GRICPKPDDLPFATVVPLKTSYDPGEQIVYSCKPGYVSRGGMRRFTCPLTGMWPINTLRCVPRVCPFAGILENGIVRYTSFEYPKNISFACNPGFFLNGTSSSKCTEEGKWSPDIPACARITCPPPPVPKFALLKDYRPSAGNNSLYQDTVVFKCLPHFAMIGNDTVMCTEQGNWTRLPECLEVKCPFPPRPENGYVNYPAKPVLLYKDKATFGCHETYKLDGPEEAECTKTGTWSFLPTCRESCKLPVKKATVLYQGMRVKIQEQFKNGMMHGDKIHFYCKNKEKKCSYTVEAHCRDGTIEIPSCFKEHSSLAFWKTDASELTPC
Sequence of human β2GPI (beta2-glycoprotein I) (human (endogenous in pooled normal human serum)) (P02749 20-345): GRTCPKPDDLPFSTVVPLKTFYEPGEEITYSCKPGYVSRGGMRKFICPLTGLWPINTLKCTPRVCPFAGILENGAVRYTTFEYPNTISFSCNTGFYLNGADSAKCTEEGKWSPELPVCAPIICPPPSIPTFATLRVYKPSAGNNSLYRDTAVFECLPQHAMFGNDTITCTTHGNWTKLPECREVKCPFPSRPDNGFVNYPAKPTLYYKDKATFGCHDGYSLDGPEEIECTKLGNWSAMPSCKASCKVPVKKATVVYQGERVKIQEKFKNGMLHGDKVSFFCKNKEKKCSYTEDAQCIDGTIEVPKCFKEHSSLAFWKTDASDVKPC

On to “Asn36/Asp mutant of mouse A1-A1 (from UniProt Q924X6 40-75; Q924X6 40-75)”, for which the values for the IC50 in assay [1] and in assay [2] were 2.5 µM and 2.8 µM, respectively.
In assay [3], “human A1, first ligand-binding module of ApoE receptor 2 (ApoER2) (domain or fragment)” came in with a Kd of 20 µM, a dH of -6.3 kcal/mol and a stoichiometry N of 1.06.
In the case of human A1-A1, the results for the IC50 in assay [1] and in assay [2] were 5 µM and 3.1 µM, respectively.
On to mouse A1-A1, for which the figures for the IC50 in assay [1] and in assay [2] were 2.7 µM and 3 µM, respectively.
In assay [3], “mouse A1, first ligand-binding module of ApoE receptor 2 (ApoER2) (domain or fragment)” returned a Kd of 26 µM, a dH of -5.5 kcal/mol and a stoichiometry N of 1.06.

Broadly, the IC50 is the concentration that inhibits the measured activity by half. Lower therefore signals greater potency in that assay. The term Kd denotes a measure of binding affinity in units of concentration. Read a high Kd as a looser complex. Usually stoichiometry N stands for the number of molecules, sites or subunits per partner or assembly.
